# Data: paper PMC10942789, “Biomolecular condensates can both accelerate and suppress aggregation of α-synuclein” (Science Advances, 2022)
# B1: NACore peptide (αSyn-68-78) (peptide)
# peptide: GAVVTGVTAVA
# notes: alpha-synuclein residues 68-78, from the non-amyloid-β component; source: synthetic peptide; bought: CASLO ApS (Denmark)
# Target: the molecule itself
# Assay: thioflavin T aggregation kinetics + transmission electron microscopy of fibrils; self-association into amyloid fibrils; 40 uM FL-αSyn or αSyn-108, or 160 uM NACore; 50 mM Hepes (pH 7.4), 100 mM NaCl, 100 uM EDTA, 20 uM ThT, 37°C, continuous linear shaking; without coacervates (reference), with supernatant or with coacervate droplets
protein,measurement,value
B1,binding result,binds
